Measured values from ChEMBL document CHEMBL1671717, “In vitro potentiation of carbapenems with ME1071, a novel metallo-beta-lactamase inhibitor, against metallo-beta-lactamase- producing Pseudomonas aeruginosa clinical isolates” (Antimicrob Agents Chemother, 2010).
The source made the active and inactive calls. No cut-off for these calls is given here.

Assays:
Pseudomonas aeruginosa [1] = assay: Inhibition of Pseudomonas aeruginosa Metallo-beta-lactamase assessed as decrease in biapenem resistance rate at 32 ug/ml
Pseudomonas aeruginosa [2] = assay: Inhibition of Pseudomonas aeruginosa Metallo-beta-lactamase assessed as increase in biapenem susceptible rate at 32 ug/ml; set-up: scale not given: the % may be the effect or the level left
Pseudomonas aeruginosa [3] = assay: Inhibition of Pseudomonas aeruginosa Metallo-beta-lactamase assessed as potentiation of piperacillin antimicrobial activity
Pseudomonas aeruginosa [4] = assay: Inhibition of Pseudomonas aeruginosa Metallo-beta-lactamase assessed as potentiation of aztreonam antimicrobial activity
[5] = tested on: C[C@@H](O)[C@H]1C(=O)N2C(C(=O)O)=C(SCCNC=N)C[C@H]12; assay: (§1) Activity of Pseudomonas aeruginosa beta-lactamase VIM-2 by UV spectrophotometric analysis
[6] = tested on: C[C@@H](O)[C@H]1C(=O)N2C(C(=O)[O-])=C(SC3Cn4cnc[n+]4C3)[C@H](C)[C@H]12; assay: as §1
[7] = tested on: C[C@@H](O)[C@H]1C(=O)N2C(C(=O)O)=C(SCCNC=N)C[C@H]12; assay: (§2) Ratio of Kcat to Km for Pseudomonas aeruginosa beta-lactamaseVIM-2 by UV spectrophotometric analysis
[8] = tested on: C[C@@H](O)[C@H]1C(=O)N2C(C(=O)[O-])=C(SC3Cn4cnc[n+]4C3)[C@H](C)[C@H]12; assay: as §2

| Compound | inhibition (Pseudomonas aeruginosa [1]) | Activity (Pseudomonas aeruginosa [2]) | Activity (Pseudomonas aeruginosa [3]) | Activity (Pseudomonas aeruginosa [4]) | Km [5] | kcat [5] | Km [6] | kcat [6] | kcat/Km [7] | kcat/Km [8] |
| --- | --- | --- | --- | --- | --- | --- | --- | --- | --- | --- |
| CC/C(C(=O)O)=C(\CC)C(=O)O | 40% | 22% | inactive | inactive | – | – | – | – | – | – |
| Beta-lactamase VIM-2 (Pseudomonas aeruginosa) (from UniProt Q9K2N0) | – | – | – | – | 8.5 µM | 98.9 s⁻¹ | 24.7 µM | 12.4 s⁻¹ | 1.2e+07 M⁻¹ s⁻¹ | 500000 M⁻¹ s⁻¹ |
